Assay results reported in ChEMBL document CHEMBL2074141, “Comparison of lactate transport in astroglial cells and monocarboxylate transporter 1 (MCT 1) expressing Xenopus laevis oocytes. Expression of two different monocarboxylate transporters in astroglial cells and neurons” (J Biol Chem, 1997).

Substrate: C[C@@H](O)C(=O)O
Assay: TP_TRANSPORTER: uptake in Xenopus laevis oocytes
Format: functional, cell-based
Settings: Oocyte

B1: Monocarboxylate transporter 1 (Rattus norvegicus), P53987 (protein)
chain: MPPAIGGPVGYTPPDGGWGWAVVVGAFISIGFSYAFPKSITVFFKEIEIIFSATTSEVSWISSIMLAVMYAGGPISSILVNKYGSRPVMIAGGCLSGCGLIAASFCNTVQELYFCIGVIGGLGLAFNLNPALTMIGKYFYKKRPLANGLAMAGSPVFLSTLAPLNQAFFGIFGWRGSFLILGGLLLNCCVAGSLMRPIGPQQGKVEKLKSKESLQEAGKSDANTDLIGGSPKGEKLSVFQTVNKFLDLSLFTHRGFLLYLSGNVVMFFGLFTPLVFLSNYGKSKHFSSEKSAFLLSILAFVDMVARPSMGLAANTRWIRPRVQYFFAASVVANGVCHLLAPLSTTYVGFCIYAGVFGFAFGWLSSVLFETLMDLVGPQRFSSAVGLVTIVECCPVLLGPPLLGRLNDMYGDYKYTYWACGVILIIAGLYLFIGMGINYRLVAKEQKAEEKKRDGKEDETSTDVDEKPKKTMKETQSPAPLQNSSGDPAEEESPV
  Km: 5.6 mM
